Patent US11512128B2, “VEGF/DLL4 binding agents and uses thereof” (MEREO BIOPHARMA 5, INC., priority 2011, dated 2022)

T1: mouse VEGF165 (Mus musculus, UniProt Q00731)
T1 sequence (Q00731 27-190 isoform Q00731-2): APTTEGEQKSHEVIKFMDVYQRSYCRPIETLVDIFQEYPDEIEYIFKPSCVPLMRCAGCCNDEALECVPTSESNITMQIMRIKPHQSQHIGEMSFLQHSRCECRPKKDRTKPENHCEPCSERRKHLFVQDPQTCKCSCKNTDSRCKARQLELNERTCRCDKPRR


Tests used:
[1] = test system: OMP-PN8 pancreatic tumor cells; assay: Tumorigenicity of OMP-PN8 pancreatic tumor cells after treatment (serial transplantation); format: in vivo, NOD/SCID mice; settings: 90 cells from treated tumors transplanted, day 55, no treatment; 21M18, bevacizumab 15 mg/kg, bispecifics 30 mg/kg, gemcitabine 70 mg/kg, four weeks
Method: FIG. 6. Tumorigenicity of pancreatic tumor cells after treatment with anti-VEGF/anti-DLL4 bispecific antibodies. OMP-PN8 tumor cells from mice treated with control antibody, anti-hDLL4 antibody 21M18, anti-VEGF antibody bevacizumab, or anti-VEGF/anti-DLL4 bispecific antibodies 219R45-MB-21M18 or 219R45-MB-21R79 with or without gemcitabine were processed to single cell suspensions, and serially transplanted into mice. 90 cells from each treatment group were injected subcutaneously into NOD/SCID mice. Tumors were allowed to grow with no treatment. Data is shown as tumor volume (mm^3) on day 55. Tumor frequency is shown as number of tumors over total number of mice injected in each group.
Mice bearing OMP-PN8 pancreatic tumors were treated with control antibody (15 mg/kg), anti-hDLL4 antibody 21M18 (15 mg/kg), anti-VEGF antibody bevacizumab (15 mg/kg), or anti-VEGF/anti-DLL4 bispecific antibodies 219R45-MB-21M18 or 219R45-MB-21R79 (30 mg/kg) with or without gemcitabine (70 mg/kg). Following four weeks of treatment, tumors were harvested, processed to single cell suspensions and the human tumor cells were purified by immunomagnetic depletion of murine cells. 90 human tumor cells from each treatment group were transferred to a new cohort of mice (n=10 mice/group). Tumors were allowed to grow for 55 days without any treatment and tumor volumes were measured with electronic calipers.

[2] = test system: DLL4-induced Notch signaling; assay: DLL4-induced Notch signaling luciferase reporter assay in Notch2-expressing PC3 cells; format: cell-based; settings: coated human DLL4 100 ng/well, antibody 20 to 0.064 ug/ml
Method: FIG. 4. Inhibition of DLL4-induced Notch signaling by anti-VEGF/anti-DLL4 bispecific antibodies. Luciferase activity was measured using a dual luciferase assay kit with firefly luciferase activity normalized to Renilla luciferase activity. 219R45-MB-21M18 (-●-); 219R45-MB-21R79 (-▪-); 21M18 (-∘-); 21R79 (-□-).
Human PC3 cells were transfected with an expression vector encoding a full-length human Notch2 receptor and a firefly luciferase reporter vector (8× CBF-luciferase reporter) that is responsive to Notch signaling. The cells were also transfected with a Renilla luciferase reporter (Promega, Madison, Wis.) as an internal control for transfection efficiency. Purified human DLL4 protein was coated onto 96-well plates at 100 ng/well and Notch2-expressing PC3-luc cells were added to the wells. Anti-VEGF/anti-DLL4 bispecific antibodies 219R45-MB-21M18, 219R45-MB-21R79, parental anti-DLL4 antibodies 21M18, 21R79 or a control antibody LZ1 were serially diluted 5-fold from 20 ug/ml to 0.064 ug/ml, added to the appropriate wells, and incubated overnight. Luciferase activity was determined using a dual luciferase assay kit (Promega, Madison, Wis.) with firefly luciferase activity normalized to Renilla luciferase activity.

[3] = molecular target: mouse DLL4-Fc; assay: Biacore binding affinity (KD) to mouse DLL4; settings: Biacore 2000, mouse DLL4-Fc on CM5 chip; read-out: KD mDLL4
Sequence of mouse DLL4-Fc (Q9JI71 27-519 limits assumed): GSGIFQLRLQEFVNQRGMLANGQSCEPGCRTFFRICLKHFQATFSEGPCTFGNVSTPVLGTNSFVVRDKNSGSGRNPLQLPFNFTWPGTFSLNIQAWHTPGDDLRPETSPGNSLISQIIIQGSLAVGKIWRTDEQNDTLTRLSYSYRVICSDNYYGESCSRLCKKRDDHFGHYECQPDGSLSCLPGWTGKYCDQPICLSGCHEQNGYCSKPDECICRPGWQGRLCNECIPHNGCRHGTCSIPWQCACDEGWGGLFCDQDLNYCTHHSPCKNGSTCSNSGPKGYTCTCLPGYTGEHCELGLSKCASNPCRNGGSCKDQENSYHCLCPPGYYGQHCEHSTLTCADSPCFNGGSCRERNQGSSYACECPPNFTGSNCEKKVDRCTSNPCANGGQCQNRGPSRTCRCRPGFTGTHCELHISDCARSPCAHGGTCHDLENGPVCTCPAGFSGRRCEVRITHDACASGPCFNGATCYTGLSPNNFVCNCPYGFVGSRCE
Method: (§1) The KDs of parental antibodies anti-VEGF 219R45 (IgG format), anti-DLL4 21R79 (IgG format), anti-DLL4 21M18 (IgG format) and bispecific antibodies 219R45-MB-21M18 and 219R45-MB-21R79 were determined using a Biacore 2000 system from Biacore LifeSciences (GE Healthcare). Recombinant human DLL4-Fc or mouse DLL4-Fc proteins were immobilized on CM5 carboxyl chips using standard amine-based chemistry (NHS/EDC) and blocked with ethanolamine. Recombinant human VEGF165 or mouse VEGF165 were biotinylated and immobilized on streptavidin chips. The antibodies were serially diluted 2-fold from 100 nM to 0.78 nM in HBS-P (0.01M HEPES pH7.4, 0.15M NaCl, 0.005% v/v Polysorbate 20). For each antibody, all 8 dilutions were sequentially injected over a specific chip. Kinetic data were collected over time and were fit using the simultaneous global fit equation to yield affinity constants (KD values) for each bispecific antibody.

[4] = test system: OMP-C8 colon tumor; assay: Tumorigenicity of OMP-C8 colon tumors after treatment (serial transplantation); format: in vivo, NOD/SCID mice; settings: 150 cells from treated tumors transplanted, day 68; for tumor growth frequency, single agents: without irinotecan combination
Method: FIG. 10. Tumorigenicity of […] colon tumor cells after treatment with anti-VEGF/anti-DLL4 bispecific antibodies. Tumors from mice treated with control antibody, anti-hDLL4 antibody 21M18, anti-VEGF antibody bevacizumab, a combination of 21M18 and bevacizumab, or anti-VEGF/anti-DLL4 bispecific antibodies 219R45-MB-21M18 or 219R45-MB-21R79 with or without irinotecan were processed to single cell suspensions, and serially transplanted into mice. 150 cells from each treatment group were injected subcutaneously into NOD/SCID mice. Tumors were allowed to grow with no treatment. Data are shown as tumor volume (mm^3) on day 68.
Single cell suspensions of OMP-C8 colon tumor xenografts (20,000 cells) were injected subcutaneously into the flanks of 6-8 week old NOD/SCID mice. Tumors were allowed to grow for 33 days until they reached an average volume of 300 mm^3. The mice were randomized (n=5 per group) and treated with anti-DLL4 antibody 21M18, anti-VEGF antibody bevacizumab, a combination of antibodies 21M18 and bevacizumab, anti-VEGF/anti-DLL4 bispecific antibody 219R45-MB-21M18, anti-VEGF/anti-DLL4 bispecific antibody 219R45-MB-21R79, or control antibody, either in combination with irinotecan or without irinotecan. Antibodies and irinotecan were dosed weekly by injection into the intraperitoneal cavity. Antibodies 21M18 and bevacizumab were dosed at 7.5 mg/kg, bispecific antibodies 219R45-MB-21M18 and 219R45-MB-21R79 were dosed at 15 mg/kg, and irinotecan was dosed at 45 mg/kg. Tumors were harvested after 4 weeks, processed into single cell suspensions, and the human tumor cells were isolated. 150 tumor cells from each experimental group were injected subcutaneously into a new cohort of mice (n=10 per group) and tumors were allowed to grow without treatment. Tumor growth was monitored and tumor volumes were measured with electronic calipers.

[5] = molecular target: T1, mouse VEGF165; assay: Biacore binding affinity (KD) to mouse VEGF
Method: as §1

Molecule | tumor growth frequency (mice with tumors) [1] | inhibition of DLL4-induced Notch signaling [2] | Kd [3] | tumor growth frequency, single agents [4] | Kd ([5]; Biacore 2000, biotinylated mouse VEGF165 on streptavidin chip, read-out: KD mVEGF) | binding to mouse VEGF (in words) [5] | tumor growth frequency, combination of irinotecan and antibodies ([4]; with irinotecan 45 mg/kg)
21M18: anti-DLL4 antibody, parental antibody (Hoey et al., 2009; U.S. Pat. No. 7,750,124) (antibody, V domains shown) VH: QVQLVQSGAEVKKPGASVKISCKASGYSFTAYYIHWVKQAPGQGLEWIGYISSYNGATNYNQKFKGRVTFTTDTSTSTAYMELRSLRSDDTAVYYCARDYDYDVGMDYWGQGTLVTVSS VL: DIVMTQSPDSLAVSLGERATISCRASESVDNYGISFMKWFQQKPGQPPKLLIYAASNQGSGVPDRFSGSGSGTDFTLTISSLQAEDVAVYYCQQSKEVPWTFGGGTKVEIK | 5 out of 10 | inhibited DLL4-induced Notch signaling | > 100 nM | reduced tumor growth frequency | > 100 nM | – | –
219R45-MB-21R79: anti-VEGF/anti-DLL4 monovalent/bispecific antibody, heavy chains SEQ ID NO:7 and 6, light chains SEQ ID NO:8 (antibody, 21R79 Heavy chain without predicted signal sequence; Light chain without predicted signal sequence) heavy 1: QVQLVQSGAEVKKPGASVKVSCKASGYTFTNYWMHWVRQAPGQGLEWMGDINPSNGRTSYKEKFKRRVTLSVDKSSSTAYMELSSLRSEDTAVYFCTIHYDDKYYPLMDYWGQGTLVTVSSASTKGPSVFPLAPCSRSTSESTAALGCLVKDYFPEPVTVSWNSGALTSGVHTFPAVLQSSGLYSLSSVVTVPSSNFGTQTYTCNVDHKPSNTKVDKTVERKCCVECPPCPAPPVAGPSVFLFPPKPKDTLMISRTPEVTCVVVDVSHEDPEVQFNWYVDGVEVHNAKTKPREEQFNSTFRVVSVLTVVHQDWLNGKEYKCKVSNKGLPAPIEKTISKTKGQPREPQVYTLPPSREKMTKNQVSLTCLVKGFYPSDIAVEWESNGQPENNYKTTPPMLKSDGSFFLYSKLTVDKSRWQQGNVFSCSVMHEALHNHYTQKSLSLSPGK heavy 2: QVQLVQSGAEVKKPGASVKISCKASGYSFTAYYIHWVKQAPGQGLEWIGYIANYNRATNYNQKFKGRVTFTTDTSTSTAYMELRSLRSDDTAVYYCARDYDYDVGMDYWGQGTLVTVSSASTKGPSVFPLAPCSRSTSESTAALGCLVKDYFPEPVTVSWNSGALTSGVHTFPAVLQSSGLYSLSSVVTVPSSNFGTQTYTCNVDHKPSNTKVDKTVERKCCVECPPCPAPPVAGPSVFLFPPKPKDTLMISRTPEVTCVVVDVSHEDPEVQFNWYVDGVEVHNAKTKPREEQFNSTFRVVSVLTVVHQDWLNGKEYKCKVSNKGLPAPIEKTISKTKGQPREPQVYTLPPSREEMTKNQVSLTCLVEGFYPSDIAVEWESNGQPENNYKTTPPMLDSDGSFFLYSELTVDKSRWQQGNVFSCSVMHEALHNHYTQKSLSLSPGK light: DIVMTQSPDSLAVSLGERATISCRASESVDNYGISFMKWFQQKPGQPPKLLIYAASNQGSGVPDRFSGSGSGTDFTLTISSLQAEDVAVYYCQQSKEVPWTFGGGTKVEIKRTVAAPSVIFPPSDEQLKSGTASVVCLLNNFYPREAKVQWKVDNALQSGNSQESVTEQDSKDSTYSLSSTLTLSKADYEKHKVYACEVTHQGLSSPVTKSFNRGEC | 4 out of 10 | inhibited DLL4-induced Notch signaling | > 100 nM | reduced tumor growth frequency | – | bind mouse VEGF | –
219R45-MB-21M18: anti-VEGF/anti-DLL4 monovalent/bispecific antibody, heavy chains SEQ ID NO:7 and 5, light chains SEQ ID NO:8 (antibody, 21R79 Heavy chain without predicted signal sequence; 21M18 Heavy chain without predicted signal sequence; Light chain without predicted signal sequence) heavy 1: QVQLVQSGAEVKKPGASVKVSCKASGYTFTNYWMHWVRQAPGQGLEWMGDINPSNGRTSYKEKFKRRVTLSVDKSSSTAYMELSSLRSEDTAVYFCTIHYDDKYYPLMDYWGQGTLVTVSSASTKGPSVFPLAPCSRSTSESTAALGCLVKDYFPEPVTVSWNSGALTSGVHTFPAVLQSSGLYSLSSVVTVPSSNFGTQTYTCNVDHKPSNTKVDKTVERKCCVECPPCPAPPVAGPSVFLFPPKPKDTLMISRTPEVTCVVVDVSHEDPEVQFNWYVDGVEVHNAKTKPREEQFNSTFRVVSVLTVVHQDWLNGKEYKCKVSNKGLPAPIEKTISKTKGQPREPQVYTLPPSREKMTKNQVSLTCLVKGFYPSDIAVEWESNGQPENNYKTTPPMLKSDGSFFLYSKLTVDKSRWQQGNVFSCSVMHEALHNHYTQKSLSLSPGK heavy 2: QVQLVQSGAEVKKPGASVKISCKASGYSFTAYYIHWVKQAPGQGLEWIGYISSYNGATNYNQKFKGRVTFTTDTSTSTAYMELRSLRSDDTAVYYCARDYDYDVGMDYWGQGTLVTVSSASTKGPSVFPLAPCSRSTSESTAALGCLVKDYFPEPVTVSWNSGALTSGVHTFPAVLQSSGLYSLSSVVTVPSSNFGTQTYTCNVDHKPSNTKVDKTVERKCCVECPPCPAPPVAGPSVFLFPPKPKDTLMISRTPEVTCVVVDVSHEDPEVQFNWYVDGVEVHNAKTKPREEQFNSTFRVVSVLTVVHQDWLNGKEYKCKVSNKGLPAPIEKTISKTKGQPREPQVYTLPPSREEMTKNQVSLTCLVEGFYPSDIAVEWESNGQPENNYKTTPPMLDSDGSFFLYSELTVDKSRWQQGNVFSCSVMHEALHNHYTQKSLSLSPGK light: DIVMTQSPDSLAVSLGERATISCRASESVDNYGISFMKWFQQKPGQPPKLLIYAASNQGSGVPDRFSGSGSGTDFTLTISSLQAEDVAVYYCQQSKEVPWTFGGGTKVEIKRTVAAPSVIFPPSDEQLKSGTASVVCLLNNFYPREAKVQWKVDNALQSGNSQESVTEQDSKDSTYSLSSTLTLSKADYEKHKVYACEVTHQGLSSPVTKSFNRGEC | 5 out of 10 | inhibited DLL4-induced Notch signaling only at high antibody concentrations | > 100 nM | reduced tumor growth frequency | – | bind mouse VEGF | had the greatest effect in reducing tumor growth frequency
